Data from the supplement of paper PMC9112550, “Optimization of the antimicrobial peptide Bac7 by deep mutational scanning” (BMC Biology, 2022).

System: Escherichia coli TOP10
Assay: shrunken log2 fold change of peptide-encoding DNA abundance (4.5 h post-induction vs induction); higher = less antimicrobial activity (less host growth inhibition)
Settings: time post-induction: 4.5 h; library: site-saturation at positions 5, 18, 19, 20
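Further: peptides expressed intracellularly from a pBAD plasmid library in pooled LB shake-flask culture, induced with 0.3% L-arabinose, DNA abundance read by NGS, three biological replicates, DESeq2 with apeglm shrinkage.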

| Sequence | shrunken log2 fold change |
| --- | --- |
| RRIRTRPPRLPRPRPRPKSHPRP | -0.365 |
| RRIRIRPPRLPRPRPRPWSKPRP | -0.0876 |
| RRIRDRPPRLPRPRPRPATVPRP | -0.0689 |
| RRIRMRPPRLPRPRPRPHAKPRP | 0.256 |
| RRIRARPPRLPRPRPRPTAWPRP | 0.863 |
| RRIRQRPPRLPRPRPRPYYTPRP | -0.363 |
| RRIRVRPPRLPRPRPRPWSNPRP | -0.0426 |
| RRIRKRPPRLPRPRPRPHQTPRP | 0.202 |
| RRIRRRPPRLPRPRPRPPYAPRP | 0.774 |
| RRIRNRPPRLPRPRPRPPYWPRP | 0.0294 |
| RRIRTRPPRLPRPRPRPKVLPRP | -0.015 |
| RRIRFRPPRLPRPRPRPNQGPRP | -0.197 |
| RRIRWRPPRLPRPRPRPIFIPRP | -0.592 |
| RRIRQRPPRLPRPRPRPDTKPRP | -0.00171 |
| RRIRIRPPRLPRPRPRPEFWPRP | -0.0113 |
| RRIRHRPPRLPRPRPRPDWFPRP | -0.00508 |
| RRIRRRPPRLPRPRPRPLTRPRP | 0.234 |
| RRIRNRPPRLPRPRPRPGGDPRP | 0.00185 |
| RRIRQRPPRLPRPRPRPASMPRP | -0.39 |
| RRIRPRPPRLPRPRPRPCSCPRP | -0.516 |
| RRIRERPPRLPRPRPRPIVSPRP | 0.0707 |
| RRIRVRPPRLPRPRPRPHILPRP | -0.234 |
| RRIRCRPPRLPRPRPRPFLQPRP | 1.41 |
| RRIRARPPRLPRPRPRPHTSPRP | -0.218 |
| RRIRNRPPRLPRPRPRPHMDPRP | -0.384 |

| Sequence | shrunken log2 fold change |
| --- | --- |
| RRIRVRPPRLPRPRPRPHWNPRP | -0.343 |
| RRIRYRPPRLPRPRPRPSRSPRP | 0.134 |
| RRIRVRPPRLPRPRPRPVKYPRP | 0.228 |
| RRIRLRPPRLPRPRPRPSMHPRP | -0.489 |
| RRIRTRPPRLPRPRPRPASFPRP | 0.133 |
| RRIRWRPPRLPRPRPRPDPLPRP | 0.221 |
| RRIRIRPPRLPRPRPRPQLYPRP | -0.303 |
| RRIRSRPPRLPRPRPRPQVDPRP | -0.296 |
| RRIRVRPPRLPRPRPRPFMFPRP | -0.433 |
| RRIRGRPPRLPRPRPRPKFRPRP | 0.112 |
| RRIRHRPPRLPRPRPRPPNFPRP | -0.00427 |
| RRIRKRPPRLPRPRPRPEVPPRP | 0.539 |
| RRIRVRPPRLPRPRPRPNLCPRP | -0.292 |
| RRIRHRPPRLPRPRPRPSFAPRP | 0.0263 |
| RRIRERPPRLPRPRPRPMCQPRP | -0.051 |
| RRIRKRPPRLPRPRPRPFEQPRP | 0.0483 |
| RRIRPRPPRLPRPRPRPERIPRP | 0.152 |
| RRIRPRPPRLPRPRPRPNARPRP | 0.677 |
| RRIRKRPPRLPRPRPRPFWKPRP | 0.0342 |
| RRIRSRPPRLPRPRPRPIGNPRP | -0.234 |
| RRIRLRPPRLPRPRPRPGRRPRP | 0.363 |
| RRIRFRPPRLPRPRPRPRYMPRP | -0.689 |
| RRIRRRPPRLPRPRPRPICKPRP | 0.0422 |
| RRIRKRPPRLPRPRPRPDVGPRP | 0.0262 |
| RRIRPRPPRLPRPRPRPNLYPRP | -0.276 |

| Sequence | shrunken log2 fold change |
| --- | --- |
| RRIRCRPPRLPRPRPRPHTAPRP | -0.457 |
| RRIRTRPPRLPRPRPRPKSWPRP | 0.245 |
| RRIRERPPRLPRPRPRPKVKPRP | 0.0263 |
| RRIRPRPPRLPRPRPRPVFVPRP | 0.0959 |
| RRIRWRPPRLPRPRPRPRDAPRP | 0.632 |
| RRIRHRPPRLPRPRPRPFGEPRP | -0.0377 |
| RRIRVRPPRLPRPRPRPGSWPRP | 0.463 |
| RRIRWRPPRLPRPRPRPRYSPRP | -0.136 |
| RRIRWRPPRLPRPRPRPHFQPRP | -0.183 |
| RRIRIRPPRLPRPRPRPIQVPRP | -0.071 |
| RRIRKRPPRLPRPRPRPTTQPRP | 0.196 |
| RRIRSRPPRLPRPRPRPMNVPRP | -0.0106 |
| RRIRKRPPRLPRPRPRPSEGPRP | 0.0116 |
| RRIRPRPPRLPRPRPRPCGMPRP | 0.0189 |
| RRIRWRPPRLPRPRPRPTQGPRP | 0.533 |
| RRIRYRPPRLPRPRPRPDHFPRP | 0.00911 |
| RRIRPRPPRLPRPRPRPPGVPRP | 0.517 |
| RRIRIRPPRLPRPRPRPLNGPRP | -0.0474 |
| RRIRARPPRLPRPRPRPDHEPRP | -0.0137 |
| RRIRFRPPRLPRPRPRPGKSPRP | 0.0865 |
| RRIRCRPPRLPRPRPRPKNAPRP | -0.103 |
| RRIRPRPPRLPRPRPRPVACPRP | -0.0233 |
| RRIRVRPPRLPRPRPRPMNPPRP | -0.421 |
| RRIRPRPPRLPRPRPRPRCIPRP | -0.2 |
| RRIRHRPPRLPRPRPRPKPAPRP | 0.0168 |

| Sequence | shrunken log2 fold change |
| --- | --- |
| RRIRERPPRLPRPRPRPPEEPRP | 0.499 |
| RRIRLRPPRLPRPRPRPMDYPRP | -0.202 |
| RRIRNRPPRLPRPRPRPINEPRP | -0.056 |
| RRIRGRPPRLPRPRPRPYCAPRP | -0.119 |
| RRIRNRPPRLPRPRPRPYNFPRP | -0.176 |
| RRIRQRPPRLPRPRPRPFMQPRP | -0.259 |
| RRIRFRPPRLPRPRPRPHWIPRP | -0.151 |
| RRIRKRPPRLPRPRPRPKTCPRP | 0.209 |
| RRIRYRPPRLPRPRPRPNCYPRP | -0.0166 |
| RRIRSRPPRLPRPRPRPHLWPRP | -0.0232 |
| RRIRLRPPRLPRPRPRPDLKPRP | -0.0789 |
| RRIRMRPPRLPRPRPRPAAMPRP | 0.915 |
| RRIRDRPPRLPRPRPRPLAPPRP | 0.607 |
| RRIRFRPPRLPRPRPRPNSNPRP | -0.996 |
| RRIRDRPPRLPRPRPRPKEAPRP | -0.0217 |
| RRIRQRPPRLPRPRPRPTPRPRP | 0.843 |
| RRIRWRPPRLPRPRPRPFQMPRP | -0.692 |
| RRIRARPPRLPRPRPRPIKPPRP | 0.0335 |
| RRIRCRPPRLPRPRPRPGTIPRP | 0.00164 |
| RRIRARPPRLPRPRPRPISYPRP | -0.545 |
| RRIRTRPPRLPRPRPRPLKVPRP | -0.221 |
| RRIRLRPPRLPRPRPRPTWAPRP | 0.17 |
| RRIRWRPPRLPRPRPRPRLQPRP | 0.642 |
| RRIRYRPPRLPRPRPRPTLTPRP | -0.0404 |
| RRIRLRPPRLPRPRPRPNQHPRP | -0.222 |

| Sequence | shrunken log2 fold change |
| --- | --- |
| RRIRFRPPRLPRPRPRPTWVPRP | 0.156 |
| RRIRMRPPRLPRPRPRPPECPRP | 0.369 |
| RRIRLRPPRLPRPRPRPGPAPRP | 0.972 |
| RRIRCRPPRLPRPRPRPISNPRP | -0.145 |
| RRIRFRPPRLPRPRPRPQRPPRP | 0.203 |
| RRIRYRPPRLPRPRPRPAAKPRP | 0.152 |
| RRIRLRPPRLPRPRPRPENEPRP | -0.0211 |
| RRIRCRPPRLPRPRPRPPVYPRP | 0.000934 |
| RRIRWRPPRLPRPRPRPCQWPRP | 0.0226 |
| RRIRYRPPRLPRPRPRPPETPRP | -0.0226 |
| RRIRGRPPRLPRPRPRPCPYPRP | 0.0633 |
| RRIRPRPPRLPRPRPRPRFIPRP | -0.184 |
| RRIRGRPPRLPRPRPRPLYEPRP | 0.913 |
| RRIRIRPPRLPRPRPRPWSQPRP | -0.738 |
| RRIRVRPPRLPRPRPRPFPEPRP | -0.24 |
| RRIRTRPPRLPRPRPRPPTAPRP | -0.0521 |
| RRIRDRPPRLPRPRPRPSHHPRP | -0.344 |
| RRIRQRPPRLPRPRPRPCLRPRP | -0.379 |
| RRIRQRPPRLPRPRPRPQYAPRP | -0.176 |
| RRIRRRPPRLPRPRPRPMQKPRP | 0.026 |
| RRIRDRPPRLPRPRPRPVYSPRP | 0.0356 |
| RRIRKRPPRLPRPRPRPMNDPRP | 0.188 |
| RRIRIRPPRLPRPRPRPSDAPRP | -0.0664 |
| RRIRPRPPRLPRPRPRPDVFPRP | -0.203 |
| RRIRFRPPRLPRPRPRPHDLPRP | -0.203 |
